Results from patent US20240343803A1 (SHANDONG SIMCERE BIOPHARMACEUTICAL, published 2024).
Substitutions are numbered along the chain they refer to.

T1: human PVRIG-his (AcroBiosystems, Cat NO. PVG-H52H4) (human, UniProt Q6DKI7 41-171, limits assumed)
T1 construct: also called human PVRIG protein
T1 sequence (looked up): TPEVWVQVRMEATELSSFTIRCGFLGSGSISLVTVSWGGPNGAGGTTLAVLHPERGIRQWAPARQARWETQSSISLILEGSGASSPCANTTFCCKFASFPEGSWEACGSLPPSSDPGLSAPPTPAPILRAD

T2: cynomolgus monkey PVRIG (Novoprotein, Cat NO. C09B) (cynomolgus monkey, UniProt A0A2K5WVV8 41-171)
T2 construct: also called cynomolgus monkey PVRIG protein
T2 sequence: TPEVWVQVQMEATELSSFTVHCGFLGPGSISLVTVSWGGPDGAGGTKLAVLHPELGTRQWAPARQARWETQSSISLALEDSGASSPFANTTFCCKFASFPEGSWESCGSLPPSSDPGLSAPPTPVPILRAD

T3: cynomolgus monkey PVRIG on FlpinCHO-cyno PVRIG cells (cynomolgus monkey, UniProt A0A2K5WVV8 41-322)
T3 construct: whole, on cells
T3 sequence: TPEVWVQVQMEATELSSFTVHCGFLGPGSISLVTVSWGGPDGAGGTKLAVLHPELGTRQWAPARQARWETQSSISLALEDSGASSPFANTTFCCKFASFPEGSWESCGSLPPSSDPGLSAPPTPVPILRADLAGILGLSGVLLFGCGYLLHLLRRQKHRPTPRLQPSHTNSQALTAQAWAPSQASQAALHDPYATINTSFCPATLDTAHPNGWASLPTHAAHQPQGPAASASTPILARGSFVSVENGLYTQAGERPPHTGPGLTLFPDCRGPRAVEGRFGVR

B1: PVRIG-A50-H1a (Fc fusion)
chain: EVQLVESGGGLVQPGGSLRLSCAASGFTFSYYDMSWVRQAPGKGLEWVSTINSDGGRTSYVDSVKGRFTISRDNSKNTLYLQMNSLRAEDTAVYYCVEGDPHNFGLENLSLRDFGSWGQGTMVTVSS
notes: humanized variant of PVRIG-A50; also called A50.VH1a; not shown: constant part not restated for the humanized forms; parents are VHH-hinge-CH2-CH3 of human IgG1; detected by anti-human
B2: PVRIG-A50-H1b (Fc fusion)
chain: B1 chain with N108S
notes: humanized variant of PVRIG-A50; also called A50.VH1b; not shown: constant part not restated for the humanized forms; parents are VHH-hinge-CH2-CH3 of human IgG1; detected by anti-human
B3: PVRIG-A50-H1c (Fc fusion)
chain: B1 chain with S110A
notes: humanized variant of PVRIG-A50; also called A50.VH1c; not shown: constant part not restated for the humanized forms; parents are VHH-hinge-CH2-CH3 of human IgG1; detected by anti-human
B4: PVRIG-A50-H1e (Fc fusion)
chain: B1 chain with D54N, G55A, N108S
notes: humanized variant of PVRIG-A50; also called VH1e; not shown: constant part not restated for the humanized forms; parents are VHH-hinge-CH2-CH3 of human IgG1; detected by anti-human
B5: PVRIG-A50-H2a (Fc fusion)
chain: B1 chain with D54N, G55A, S75T, N108S
notes: humanized variant of PVRIG-A50; also called A50.VH2a; not shown: constant part not restated for the humanized forms; parents are VHH-hinge-CH2-CH3 of human IgG1; detected by anti-human
B6: PVRIG-A105-H1 (Fc fusion)
chain: EVQLVESGGGLVQPGGSLRLSCAASGRTFDRHTMSWFRQAPGKEREFVATASRIPGDTYYVDSVKGRFTISRDNAKNSLYLQMNSLRAEDTAVYYCAATSAYCSEVDCYEKGSWYDNWGQGTMVTVSS
notes: humanized variant of PVRIG-A105; also called A105.VH1; not shown: constant part not restated for the humanized forms; parents are VHH-hinge-CH2-CH3 of human IgG1; detected by anti-human
B7: PVRIG-A105-H3 (Fc fusion)
chain: B6 chain with S35T, L79V
notes: humanized variant of PVRIG-A105; also called A105.VH3; not shown: constant part not restated for the humanized forms; parents are VHH-hinge-CH2-CH3 of human IgG1; detected by anti-human
B8: PVRIG-A105-H4 (Fc fusion)
chain: B6 chain with S35T, V61S, D62H
notes: humanized variant of PVRIG-A105; also called A105.VH4; not shown: constant part not restated for the humanized forms; parents are VHH-hinge-CH2-CH3 of human IgG1; detected by anti-human
B9: PVRIG-A118-H4 (Fc fusion)
chain: EVQLVESGGGLVQPGGSLRLSCAASETYFDLYVMGWYRQAPGKDRELVATITYTGSIKYVDSVKGRFTISRGDAKNSLSLQMNSLRAEDTAVYYCNADPSGLGRKVYWGQGTMVTVSS
notes: humanized variant of PVRIG-A118; also called A118.VH4; not shown: constant part not restated for the humanized forms; parents are VHH-hinge-CH2-CH3 of human IgG1; detected by anti-human
B10: PVRIG-A118-H5 (Fc fusion)
chain: B9 chain with L78V, S79Y
notes: humanized variant of PVRIG-A118; also called A118.VH5; not shown: constant part not restated for the humanized forms; parents are VHH-hinge-CH2-CH3 of human IgG1; detected by anti-human
B11: PVRIG-A118-H6 (Fc fusion)
chain: B9 chain with Y59I, S79Y
notes: humanized variant of PVRIG-A118; also called A118.VH6; not shown: constant part not restated for the humanized forms; parents are VHH-hinge-CH2-CH3 of human IgG1; detected by anti-human
B12: PVRIG-A118-H7 (Fc fusion)
chain: B9 chain with S79Y, Y94F
notes: humanized variant of PVRIG-A118; also called A118.VH7; not shown: constant part not restated for the humanized forms; parents are VHH-hinge-CH2-CH3 of human IgG1; detected by anti-human
B13: PVRIG-A50-H1 (Fc fusion)
chain: B1 chain with D54N
notes: humanized variant of PVRIG-A50; also called A50.VH1; not shown: constant part not restated for the humanized forms; parents are VHH-hinge-CH2-CH3 of human IgG1; detected by anti-human
B14: PVRIG-A50-H1d (Fc fusion)
chain: B1 chain with D54N, N108S
notes: humanized variant of PVRIG-A50; also called A50.VH1d; not shown: constant part not restated for the humanized forms; parents are VHH-hinge-CH2-CH3 of human IgG1; detected by anti-human
B15: PVRIG-A50 (Fc fusion)
chain: B1 chain with D54N, S75T, R87K, A88P, M122Q
notes: heavy chain antibody VHH-hinge-CH2-CH3, human IgG1 constant part; also called PVRIG-50; not shown: human IgG1 hinge-CH2-CH3
B16: PVRIG-A105 (Fc fusion)
chain: EVQLVESGGGLVQAGGSLRLSCAASGRTFDRHTMTWFRQAPGKEREFVATASRIPGDTYYSHSVKGRFTISRDNAKNTVYLQLNNLKPEDTAVYYCAATSAYCSEVDCYEKGSWYDNWGQGIQVTVSS
notes: heavy chain antibody VHH-hinge-CH2-CH3, human IgG1 constant part; not shown: human IgG1 hinge-CH2-CH3
B17: PVRIG-A118 (Fc fusion)
chain: QVQLVESGGGLVQAGGSLRLSCAASETYFDLYVMGWYRQAPGKDRELVATITYTGSIKIVDSVKDRFTISRGDAKNTVSLQMSSLKPEDTAVYFCNADPSGLGRKVYWGQGTQVTVSS
notes: as for B16

molecular target: T1, human PVRIG-his (AcroBiosystems, Cat …); experiment: ELISA, antigen coated
Procedure: (§1) The ELISA plate was pre-coated with 100 μL/well of 0.5 μg/mL human PVRIG-his (AcroBiosystems, Cat NO. PVG-H52H4) or cynomolgus monkey PVRIG (Novoprotein, Cat NO. C09B). The tested anti-PVRIG humanized antibodies were serially diluted (initial concentration 3 nM, 3-fold serial dilution), added into the plate (100 μL/well) and incubated with shaking at room temperature for 1.5 hours. […] A HRP substrate, TMB (Thermo, Cat NO. 34029) was added into wells after washing the plate again for color development. After adding a termination solution to terminate the reaction, the absorbance value was read by a microplate reader (MD i3×). An antibody binding curve was drawn with concentration of antibodies as the abscissa and the corresponding OD value as the ordinate. The EC50 value was calculated by using a Four Parameter Logistic Fit (GraphPadPrism9). The smaller the EC50 value, the stronger the ability of the antibodies binds to human or cynomolgus monkey PVRIG. The binding effect of the humanized antibodies was normalized to the corresponding parental antibodies. If the percentage value is higher than 100%, the binding effect of humanized antibodies is better than that of parental antibody.

% relative activity parental antibody/tested antibody [%] | EC50 [nM] | Binder
92.4 | 0.099 | B1
111 | 0.0819 | B2
87.3 | 0.105 | B3
116 | 0.0791 | B4
140 | 0.0655 | B5
150 | 0.0487 | B6
125 | 0.0585 | B7
140 | 0.0521 | B8
95.8 | 0.0522 | B9
104 | 0.0481 | B10
90.8 | 0.0551 | B11
99.9 | 0.0501 | B12
105 | 0.0871 | B13
118 | 0.0774 | B14

molecular target: T2, cynomolgus monkey PVRIG (Novoprotein, …); experiment: ELISA, antigen coated
Procedure: as §1

% relative activity parental antibody/tested antibody [%] | EC50 [nM] | Binder
66.4 | 0.185 | B1
75.8 | 0.161 | B2
69.5 | 0.177 | B3
89.5 | 0.138 | B4
68.3 | 0.18 | B5
107 | 0.0303 | B6
91.7 | 0.0352 | B7
89.4 | 0.0361 | B8
37.1 | 0.0729 | B9
40.2 | 0.0673 | B10
48.4 | 0.0559 | B11
33.1 | 0.0817 | B12
95.1 | 0.13 | B13
111 | 0.111 | B14

molecular target: T3, cynomolgus monkey PVRIG on …; experiment: FACS, FlpinCHO-cyno PVRIG cells
Procedure: The antibodies were diluted from the highest concentration of 46 nM (two-fold concentration) with staining buffer by 3.3-fold serial dilution. The diluted antibodies were added to the well containing 50 μL of cell suspension. The plate was placed on a microplate shaker at 400 rpm for 1 minute to fully mix the antibodies and cells, and then incubated at 4° C. for 30 minutes. After the incubation, the cells were washed twice with staining buffer (200 μL per well) and centrifuged at 350×g for 5 minutes to discard the supernatant. The PE goat anti-human IgG Fc antibody (ebioscience, 12-4998-82) was diluted 250 times with staining buffer, added into the washed wells (100 μL per well), mixed well, and stained at 4° C. for 30 minutes. After staining, the cells were washed twice with staining buffer, finally resuspended with 200 μL staining buffer and analyzed by flow cytometry (BD, Canto II). The stronger the signal, the stronger the ability of the antibodies binds to PVRIG. An antibody binding curve was drawn with concentration of antibodies as the abscissa and the corresponding Mean Fluorescence Intensity (MFI) as the ordinate. The AUC value of the curve was calculated by using a Four Parameter Logistic Fit (GraphPadPrism9). The stronger the AUC value, the stronger the ability of the antibodies binds to FlpinCHO-PVRIG and FlpinCHO-cyno PVRIG. […] The binding activity of the antibodies was normalized to the positive control COM701-hIgG1 and SRF813-hIgG1. The higher the percentage value, the stronger the binding ability of the antibodies.
The methods refer to Example 19. The stronger the AUC value, the stronger the ability of the humanized antibodies binds to FlpinCHO-human/cyno PVRIG.

AUC % to COM701-hIgG1 [%] | AUC % to SRF813-hIgG1 [%] | AUC % to parental Ab [%] | Binder
47.1 | 57.8 | 100 | B15
40.7 | 50 | 86.5 | B1
34.4 | 42.2 | 73.1 | B2
38.8 | 47.6 | 82.5 | B3
43.3 | 53.2 | 92 | B4
42.4 | 52.1 | 90.2 | B5
87.5 | 108 | 100 | B16
81.3 | 101 | 93 | B6
86.4 | 107 | 98.8 | B7
80.3 | 99.6 | 91.8 | B8
62.4 | 76.1 | 100 | B17
21.3 | 26 | 34.2 | B9
21.8 | 26.6 | 35 | B10
19.9 | 24.2 | 31.8 | B11
19.7 | 24 | 31.6 | B12
45.2 | 55.5 | 96 | B13
48.6 | 59.7 | 103 | B14
